In patent publication US11103562B2, “Composition comprising alkaline phosphatase for use in the treatment of arthritides” (AMRIF BV, priority 2017, dated 2021):

Key:
[1] = rats; cited from earlier work
[2] = test system: macrophages
Method: At the end of the treatment period, arthritic rats receiving 4× AP, 4× AP/low dose MTX, 4× AP/high dose MTX treatment, and untreated rats, were administered with [^18F]fluoro-PEG-folate tracer. Sixty minutes after tracer administration, rats were sacrificed. Low and high dose MTX treated arthritic rats were sacrificed without tracer administration. Upon sacrificing, all rats were excised and knees, blood and various internal organs were collected, rinsed, dipped dry, weighed and the amount of radioactivity determined using an LKB 1282 Compugamma CS gamma counter (LKB, Wallac, Turku, Finland). Results for tracer uptake in the various tissues were expressed as percentage of the injected dose per gram tissue (%ID/g).

[3] = test system: ED1-, ED2- and FRβ-positive macrophages in liver and spleen; test: Macrophage infiltration in liver and spleen of arthritic rats (ED1/ED2 immunohistochemistry, FRβ immunofluorescence); type: in vivo, rat
Method: The arthritic and contralateral knees from all rats were dissected in toto and fixed for 7 days at 4° C. in 10% freshly made paraformaldehyde in PBS with 2% sucrose (pH=7.3) prior to decalcification in osteosoft (101728, Merck, Germany) for ˜2.5 weeks at room temperature. Thereafter, knees were embedded in paraffin. Sections of 5 μm were cut through the centre of the joint in longitudinal direction and stained with haematoxylin and eosin (HE) to assess the degree of inflammation in synovial tissue. Liver and spleen sections from all rats were dissected and fixed in 4% paraformaldehyde for 24 h before embedding in paraffin. Sections of 5 μm were cut and stained initially with HE and then for macrophages Staining for macrophages with ED1 (homologous to human CD68), and ED2 (homologous to human CD163, a marker for M2 anti-inflammatory macrophages), or isotype control antibody was performed. Images were captured using a Leica 4000B microscope and Leica digital camera DC500 (Microsystems B. V. Rijswijk, The Netherlands).
Liver and spleen tissues collected at the end of the study were snap frozen in liquid nitrogen and stored at −80° C. Tissues were embedded in appropriate media (OCT; SKU4583, Tissue-Tek, Netherlands), cut using a cryotome cryostat (−20° C.) (Leica, The Netherlands) and placed on Superfrost (4951PLUS4, ThermoFisher, The Netherlands) glass slides for immunofluorescence (IF) staining Sections of 8 μm were cut and stained with haematoxylin and eosin. […]
Stained slides of liver and spleen sections of arthritic rats and AP-treated arthritic rats were blinded and counted by two independent observers for FRβ, ED1- and ED2-positive synovial macrophages. For quantification, representative areas of liver and spleen sections were divided into 4 regions, each representing a central pulp and vein, respectively. The FRβ, ED1- and ED2-positive macrophages were counted at 400× magnification as described above. […] As a reference liver and spleen sections of healthy rats were analyzed as control.

[4] = AP plasma pharmacokinetics (enzymatic PNP assay) in healthy and arthritic rats; type: in vivo, rat; details: for persistence of increased plasma AP levels: 4 hour sampling
Method: An enzymatic assay was used to determine plasma concentrations of alkaline phosphatase prior to and 0-4 hours after administration a dose of 700 U/kg AP to healthy rats and arthritic rats, FIG. 7. At time points 0, 15, 60, 120 and 240 min after AP administration, a blood sample was drawn from the tail vain of the rats and transferred to a lml Eppendorf microtube containing heparin (454081, Greiner bio-one, Charlotte, USA) as anti-coagulant. As a control, blood was drawn at the same time points from arthritic rats that were injected a t=0 with 500 μl PBS. Eppendorf tubes were centrifuged at 3,000×g for 5 min at 4° C., after which the plasma was collected and stored at −80° C. until use.
The enzymatic assay for AP is based on the conversion of the substrate paranitrophenol-phosphate (PNP; 104105, Sigma-Aldrich, Zwijdrecht, the Netherlands) to paranitrophenol which is measured spectrophotometrically at 405 nm at 25° C. To a 3 ml reaction cuvette was added 2.9 ml substrate solution (containing final concentrations of 25 mM glycine, 10 mM MgCl2, 3 mM PNP, adjusted to pH 9.6 with NaOH). The reaction was started by adding 30 μl of plasma sample, 1:1 diluted in enzyme diluent buffer (25 mM glycine, 1 mM MgCl2, 0.1 mM ZnCl2, 10% (v/v) glycerol, adjusted to pH 9.6 with NaOH). In parallel a reference cuvette was assayed without substrate. The reaction was followed on line for 5 min at 25° C. with continuous monitoring increase of absorbance at 405 nm using a (10037-434, VWR, Radnor, Pa.<USA) spectrophotometer. From the linear phase of A405 increments, AP activity in plasma samples (in U/L) was calculated from a standard curve with serial dilutions of a human recombinant placenta AP stock solution. One Unit of activity is defined as the amount of enzyme decomposing 1 μmol of PNP/min at 25° C.

[5] = 4x AP, 60 min post tracer injection
[6] = arthritic rats, 60 min after tracer

B1: AP: human recombinant placenta alkaline phosphatase (hRESCAP; TNO, Zeist), an ectophosphatase (protein, UniProt P05187 23-506, looked up)
Alkaline phosphatase, …: IIPVEEENPDFWNREAAEALGAAKKLQPAQTAAKNLIIFLGDGMGVSTVTAARILKGQKKDKLGPEIPLAMDRFPYVALSKTYNVDKHVPDSGATATAYLCGVKGNFQTIGLSAAARFNQCNTTRGNEVISVMNRAKKAGKSVGVVTTTRVQHASPAGTYAHTVNRNWYSDADVPASARQEGCQDIATQLISNMDIDVILGGGRKYMFRMGTPDPEYPDDYSQGGTRLDGKNLVQEWLAKRQGARYVWNRTELMQASLDPSVTHLMGLFEPGDMKYEIHRDSTLDPSLMEMTEAALRLLSRNPRGFFLFVEGGRIDHGHHESRAYRALTETIMFDDAIERAGQLTSEEDTLSLVTADHSHVFSFGGYPLRGSSIFGLAPGKARDRKAYTVLLYGNGPGYVLKDGARPDVTESESGSPEYRQQSAVPLDEETHAGEDVAVFARGPQAHLVHGVQEQTFIAHVMAFAACLEPYTACDLAPPAGTTD
half life time [1]: ≈ 3 days | [^18F]fluoro-PEG-folate uptake, Heart, Avg [2, 5]: 0.117 % ID/g | [^18F]fluoro-PEG-folate uptake, Liver, Avg [2, 5]: 0.151 % ID/g | [^18F]fluoro-PEG-folate uptake, Lung, Avg [2, 5]: 0.111 % ID/g | [^18F]fluoro-PEG-folate uptake, Spleen, Avg [2, 5]: 0.779 % ID/g | [^18F]fluoro-PEG-folate uptake in kidney and intestine (in words) [2, 6]: not impacted | [^18F]fluoro-PEG-folate uptake in lung, heart, liver and spleen (in words) [2, 6]: reductions | reduction of both ED1- and ED2-positive infiltrating macrophages in spleen ([3]; AP-treated vs saline-treated arthritic rats): ~30% | decrease of both ED1- and ED2-positive infiltrating macrophages in liver ([3]; AP-treated vs saline-treated arthritic rats, p<0.001): ~50% | FRβ-positive macrophages in liver and spleen ([3]; after AP treatment, arthritic rats): lowered number | maximum increase of plasma AP levels over baseline ([4]; arthritic rats, 700 U/kg i.p.): 1.7 fold | time for plasma AP levels to drop to basal levels ([4]; arthritic rats, 700 U/kg i.p.): steadily returned to baseline levels | time for plasma AP levels to drop to basal levels ([4]; arthritic rats, 700 U/kg i.p., listed as hRESCAP): ≤ 4 h | time to maximum (peak) plasma AP level ([4]; healthy and arthritic rats, 700 U/kg i.p.): 1 h | peak plasma levels above baseline ([4]; healthy and arthritic rats, single i.p. dose of 700 U/kg): 50-70% | maximum increase of plasma AP levels over baseline ([4]; healthy rats, 700 U/kg i.p.): 1.5 fold | persistence of increased plasma AP levels ([4]; healthy rats, 700 U/kg i.p.): retained for up to 4 hours | persistence of increased plasma AP levels ([4]; healthy rats, 700 U/kg i.p., listed as hRESCAP): remained stably higher above control level in plasma over 4 hours
